Measured values as given in article PMC5777258, “Phosphorylation of human enhancer filamentation 1 (HEF1) stimulates interaction with Polo-like kinase 1 leading to HEF1 localization to focal adhesions” (The Journal of Biological Chemistry, 2017).
Square brackets hold non-standard residues; d marks the D form. Ends that are not written are not given here. pT = C[C@@H](OP(=O)(O)O)[C@H](N)C(=O)O

Experiments:
[1] = target: HEF1, endogenous (UniProt Q14511); experiment: GST pull-down (bead-conjugated GST-PBD) with anti-HEF1 immunoblot, bands quantified with ImageJ; conditions: HeLa total cell lysate, parent: 1.0
[2] = target: T1, Polo box domain of mouse Plk1 (residues 367-603), for crystallization (mouse, UniProt Q07832 367-603); experiment: crystal structure; Plk1 PBD (10 mg/ml) with pThr-804 peptide added in a 1:3 molar ratio, incubated overnight; sitting-drop vapor diffusion at 295 K, 0.1 M sodium citrate pH 5.5, 15% PEG 6000; 2.9 Å; conditions: both partners purified
T1 construct: Polo box domain of mouse Plk1, Swiss Prot entry Q07832, residues 367-603; residues 371-593 are in the final model; TEV site ENLYFQS between the tag and the PBD, cleaved between Q and S: a serine is left before the PBD; also called Plk1 PBD; Plk1-PBD; source: E. coli BL21 (DE3) CodonPlus RIL, purified (Ni-NTA, TEV digestion, Superdex-75 gel filtration); not shown: His6, N-terminal, cleaved
T1 sequence (Q07832 367-603): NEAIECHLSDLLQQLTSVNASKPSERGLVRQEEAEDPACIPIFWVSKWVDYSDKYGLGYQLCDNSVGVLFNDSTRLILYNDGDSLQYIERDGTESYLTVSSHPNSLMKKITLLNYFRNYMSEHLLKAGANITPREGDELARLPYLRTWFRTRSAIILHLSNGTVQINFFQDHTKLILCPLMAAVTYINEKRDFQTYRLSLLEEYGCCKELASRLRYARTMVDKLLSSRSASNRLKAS

Chain of HEF1, endogenous (Q14511 whole entry, the tested form may be a part): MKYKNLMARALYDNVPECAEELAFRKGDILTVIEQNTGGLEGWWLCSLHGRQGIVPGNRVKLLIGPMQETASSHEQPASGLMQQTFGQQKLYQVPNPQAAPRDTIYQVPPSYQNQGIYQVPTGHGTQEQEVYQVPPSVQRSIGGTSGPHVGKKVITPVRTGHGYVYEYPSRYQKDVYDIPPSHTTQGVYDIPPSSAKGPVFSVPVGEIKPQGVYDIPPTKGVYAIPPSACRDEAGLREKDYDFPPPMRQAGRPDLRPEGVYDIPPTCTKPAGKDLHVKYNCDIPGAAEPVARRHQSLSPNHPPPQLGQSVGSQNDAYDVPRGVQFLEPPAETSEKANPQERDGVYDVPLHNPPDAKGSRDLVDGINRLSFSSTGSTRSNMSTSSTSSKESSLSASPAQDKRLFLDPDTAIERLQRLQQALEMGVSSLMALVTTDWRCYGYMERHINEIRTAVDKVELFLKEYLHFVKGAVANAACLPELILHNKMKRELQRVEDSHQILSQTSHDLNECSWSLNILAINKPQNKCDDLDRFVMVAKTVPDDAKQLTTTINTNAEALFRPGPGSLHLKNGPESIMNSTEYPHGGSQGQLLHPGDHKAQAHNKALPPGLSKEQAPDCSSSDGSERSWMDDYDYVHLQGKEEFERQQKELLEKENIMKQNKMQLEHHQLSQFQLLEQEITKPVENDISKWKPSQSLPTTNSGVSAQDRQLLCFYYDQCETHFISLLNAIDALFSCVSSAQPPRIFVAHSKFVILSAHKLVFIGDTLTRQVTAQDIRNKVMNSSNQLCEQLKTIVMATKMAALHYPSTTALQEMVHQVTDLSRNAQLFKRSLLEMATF

Molecule | ratio to parent ([1]; asynchronously growing (Async.)) | ratio to parent ([1]; nocodazole (Noc)-treated (M phase)) | ratio to parent ([1]; thymidine (Thy)-treated (S phase)) | binding result [2]
GST-Plk1 PBD WT (Polo box domain of Plk1) H538A; K540M | 0.1 | 0.2 | 0.1 | 
LHYPS[pT]TALQE (HEF1 (NEDD9), human, aa 799-809; 800-HYPSpTTAL-807 is in the final model; source: synthetic peptide) [HEF1 pThr-804 peptide (799-LHYPSpTTALQE-809), free, for crystallization] |  |  |  | binds
